Results on 1 molecule are retold here after US20240424107, “PREPARATION OF SITE-SPECIFIC POLYPEPTIDE CONJUGATES” (POSTECH RESEARCH AND BUSINESS DEVELOPMENT FOUNDATION, published 2024).

The target in this data set is trastuzumab (humanized IgG1 monoclonal antibody) (UniProt P01857-1;P01834 P01857-1:1-330,P01834:1-107). The experiment in a line: covalent conjugation at heavy chain only, at least one per antibody; HEPES pH 8.4, Mg, K, 37 C, 1 day. As to conditions: chain copies: 2. An excerpt:
Whether the aptamer brings oxanine close to the amine group of the target protein, enabling proximity-enhanced covalent bond formation, was monitored with SDS-PAGE (protein bands) and electrophoresis (DNA bands).

trastuzumab (humanized IgG1 monoclonal antibody), sequence (P01857 other isoform, or with tags, fused parts or gaps, chain 1 of 2, other chains not shown): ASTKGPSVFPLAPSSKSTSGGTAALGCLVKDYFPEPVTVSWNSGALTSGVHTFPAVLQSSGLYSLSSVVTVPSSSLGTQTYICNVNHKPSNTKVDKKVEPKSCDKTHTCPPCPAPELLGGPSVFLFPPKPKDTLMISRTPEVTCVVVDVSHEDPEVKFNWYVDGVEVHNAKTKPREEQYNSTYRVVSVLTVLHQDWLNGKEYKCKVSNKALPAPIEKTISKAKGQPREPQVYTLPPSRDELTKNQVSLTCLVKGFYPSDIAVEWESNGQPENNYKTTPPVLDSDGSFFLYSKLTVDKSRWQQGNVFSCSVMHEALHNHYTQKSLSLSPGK

B1: Fc RNA aptamer Apt8-2-oxanine (mixed)
DNA: GGAGGTGCTCCGAAAGGAACTCC
modifications: printed ggAGG[2'-F-rU]Gc[2'-F-rU]ccgaaaGgaa[2'-F-rC][2'-F-rU]cc (lowercase DNA, uppercase RNA); about 10 oxanine nucleotides added at 3' end
As for B1, the binding result is “binds”.
